Data published in PMC8025907.

Experiments:
[1] = biological target: T1, His6-BfmR (Pseudomonas aeruginosa MPAO1) (UniProt Q9HWS7); test: EMSA; conditions: 10 mM Tris-Cl pH 8.0, 1 mM DTT, 10% glycerol, 5 mM MgCl2, 10 mM KCl, 50 mM acetyl phosphate; EMSA 30 min at 37 C; footprinting 30 min at room temperature
T1 sequence: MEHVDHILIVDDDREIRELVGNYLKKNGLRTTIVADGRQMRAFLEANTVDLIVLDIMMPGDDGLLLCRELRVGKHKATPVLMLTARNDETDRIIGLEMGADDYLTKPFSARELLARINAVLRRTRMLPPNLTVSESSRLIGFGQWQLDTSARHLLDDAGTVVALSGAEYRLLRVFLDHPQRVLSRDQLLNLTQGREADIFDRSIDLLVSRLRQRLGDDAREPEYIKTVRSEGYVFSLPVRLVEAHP

[2] = biological target: T1, His6-BfmR (Pseudomonas aeruginosa MPAO1); test: DNase I footprinting; conditions: 10 mM Tris-Cl pH 8.0, 1 mM DTT, 10% glycerol, 5 mM MgCl2, 10 mM KCl, 50 mM acetyl phosphate; EMSA 30 min at 37 C; footprinting 30 min at room temperature

For “GAATATCCGAAAGCCAGACGGTTATCGGCAGAAACTCTTGGTTTTCATTGCAGTCATGCAATCTTCGCAAGGTTGCCGCAATATATGAAACAAACTGTTACATCTGTCGCCCGGACCTGATGCCTCTAGGCCTGCGCCCTTATCCGACGGCCTCATCCAGGCGCTATCCGGCTGCCTGTCACAAAAGCTTTCGCGCTTTGCAGTCTCGCTGTCACAACCCATCCAGATGATCCCCCTCCAGCAGCGCCGGCCGGCGACAGAACCGGCCGTTTCCGCGCTGCTCAAGA (double strand) [oprP promoter]”, the binding [1] was “binds” and the binding [2] was “binds”.
